Assay: soluble on expression in E. coli; label from the status in PepcDB or PDB records

| Sequence | soluble on expression in E. coli |
| --- | --- |
| MEIRPTRIELIRTRRRIKLARKGLDLLKMKRSALIYEFLQISRTIRGMRENLRREVEDALNTIRTAEILEGQVALERIANMSSDSTINVDSRNVMGVVIPTLNLTYNLSILSDVYRTISVPVAINDAIDRFQRLFLNLIQILEKENALRNLLIEIDKTKRRSNAIENILIPRLEYQAKMIKMMLDERERDTFTTLKTIKKKIEAGKDEE | not soluble |
| MGSDKIHHHHHHMTSREEFLEKLAQAGTLNLIFQLTDQCALSCRYCFAKGSHPSGGLRIADDLLDAAIRSAFDTRHHQVSFEWTGGEPFFAGIDFYRKVDRLQKKYATKPYANTIQTSGYVHDRELIAWLAGHGFRISSTIDGPPELHDFQRPVNGGGPSLGAVLATRETIIEHQGHCGCICTVTRNSLGKEGAILDYYRSLGIEAFHSNPYYYFSKNLVGDESLALDADGYAAYFIAQFNAWFEGGRKLPMPGTLNYILRSLTAGAGLKQSVCTFGGRCLTNFLAITPDGDAWLCPKFAGFDEMRLGNVGKMAITDILSDANPAMARLIDERLDAIHTCEADECRFQYLCNAGCPYYSFIASGGRNIAVKDSLCTGKQLLFEYLESVVELIDPARLPEPSPLEHA | not soluble |
| MGSDKIHHHHHHMEEKLSDVKVSGSGSIGGGNYDEVKISGSAKINGNVNCNSYMCSGSSTANGNITAKEIVKISGTTKVHGDLNSGDLIVSGSSRTFGNVTAKKIKISGSSDIEGNVHTDSIDISGSVSIGEDCEAEHFHARGGFEIAGLLNAGDIEIYMYGKCRVKDIGGENITVKLGSGHFIHEMMNLFFTRGRLVTSIIEGDNIYLEHTDAKIVRGNNITIGPNCNIENIEYKNQLNMDQSCKALCKKVDE | not soluble |
| MHHQSVLHSGYFHPLLRSWQTAASTVSASNLIYPIFVTDVPDDVQPIASLPGVARYGVNQLEEMLRPLVEAGLRCVLIFGVPSRVPKDEQGSAADSEDSPTIEAVRLLRKTFPSLLVACDVCLCPYTSHGHCGLLSENGAFLSEESRQRLAEVALAYAKAGCQVVAPSDMMDGRVEAIKAALLKHGLGNRVSVMSYSAKFASCFYGPFRDAAQSSPAFGDRRCYQLPPGARGLALRAVARDIQEGADMLMVKPGLPYLDMVREVKDKHPELPLAVYQVSGEFAMLWHGAQAGAFDLRTAVLETMTAFRRAGADIIITYFAPQLLKWLKEE | soluble |
| MELETEIIVDKVDVENPILITSFPGIGLVGTIATAHYIMELKLESIGIVDSRLLPPVASLYEGVILPPVRVYQSADLGFVLIHSDVPIIPQAAIDMSKKIVQFAAEINARRVYSFAGVATFEDKKRVFAAATSKELLEEVKDHAEIFKTGTISGIAGSIMNECVAAKMPGIVLLGETLGFNPDPRAAASLIEAVNKIMNWNVSVEKLLKEAEMIEAQMQKLAEQARMQEERKEEFPMYG | soluble |
| TSTMGNLQTAINDKSGTLASQNFLDADEQKRNAYNQAVSAAETILNKQTGPNTAKTAVEQALNNVNNAKHALNGTQNLNNAKQAAITAINGASDLNQKQKDALKAQANGAQRVSNAQDVQHNATELNTA | soluble |
| SPCDTNWRYYGDSCYGFFRHNLTWEESKQYCTDMNATLLKIDNRNIVEYIKARTHLIRWVGLSRQKSNEVWKWEDGSVISENMFEFLEDGKGNMNCAYFHNGKMHPTFCENKHYLMCERKAG | soluble |
| MALAEEDVHMIIKQVLDEVVGASTQYTHKDSVQWNQKAVEQITKKLVAAGKPYKYVVTSSFLQISSGSGLNVSTISYWNKVTDSSYMYRWEAKTMLAIVYVFAIAI | not soluble |
| MQNELQTALFQAFDTLNLQRVKTFSVPPVTLCGPGSVSSCGQQAQTRGLKHLFVMADSFLHQAGMTAGLTRSLTVKGIAMTLWPCPVGEPCITDVCAAVAQLRESGCDGVIAFGGGSVLDAAKAVTLLVTNPDSTLAEMSETSVLQPRLPLIAIPTTAGTGSETTNVTVIIDAVSGRKQVLAHASLMPDVAILDAALTEGVPSHVTAMTGIDALTHAIEAYSALNATPFTDSLAIGAIAMIGKSLPKAVGYGHDLAARESMLLASCMAGMAFSSAGLGLCHAMAHQPGAALHIPHGLANAMLLPTVMEFNRMVCRERFSQIGRALRTKKSDDRDAINAVSELIAEVGIGKRLGDVGATSAHYGAWAQAALEDICLRSNPRTASLEQIVGLYAAAQ | soluble |
| AHHHHHHGSEKALILAEGRYKTTDGKTAHGLVRYSKRFEIVGVIDSTLAGRDAGEILDGIYRGIPIYGSLEEALAEHPDVKYLIIGVATPGGYLPPLYREIIKKAIKKRINIVNGLHNFLSDDPEFSRLAKRYKVQLIDVRKMYRDLKIPFTGKIKEVRAIKIAVLGTDAAIGKRTTAIMLHEAFERFGKKSVFVAMGQTGWMQGAKYCIVMDSIINDFVVGAIEDVIWRAWKEENPDVIVTHGEGSLLHPAYPGGFELIAAGRPDYIILQHAPARKFFDDFPQYEIPPLEKYIQLIELLSGKKPIAITINSEGLTKEEALQKAREIEETYGILTRVPLYEGVDDIVKAILEEVERIKVTVPQEGAVNASQVL | not soluble |
| EQMEGMLCRKQEMEAFGKKAANRSWQNVYCVLRRGSLGFYKDAKAASAGVPYHGEVPVSLARAQGSVAFDYRKRKHVFKLGLQDGKEYLFQAKDEAEMSSWLRVVNAAIA | soluble |
| MSPLPPPPDIQHEFDKNQDPHETNLALRRLYPQIRERENERHIPRRWDLRQASSYLDISQSGYGVTFKKNVTVAEDKDPAGVVRADAFIQQCIGVYYFEVRILEGHSGCMGIGLSKKDCDLNRMPGWDPGCFGYHGDDGNFFLASGVGQAYGPKFGPGDVIGCGIDTFYHYVFFTKNGKHLGIAHTSPTALKELYPTVGFKTRGEKLVANFGVKPFEFDFEAYRQHLMNKKIHLLENIKMPENFGKQMNRIVSSFLGTTGALATLQKFEETTKPEVPIDHEYYAQRKEITDMILKAARGAEIHEKIEKYFPGLVEDDANVHLLILCLRYIDLANTLHEPPNCFTNSTTGRSPSPTEIRARPPKLLKGSQCKTTKRTREAQRRSANSQVHTPPPVRLTNAKATEELYLKDAKIERFYIDQDTEEEMLHIDGVSMPTKMFVELEKSGQYRKLNYILKMGREIMKVAGEMRGNIAPEARKVVEIATSMVSSPERPAKHPLSFALRRFIANSVVDMICYYVHHKREGKSTKRPRGTSTGEIPGSSSLRMFSELRNLFTGWKGLHIDYSTNDKKMAGIHFVRKMILEEPNFNEKEIIYTDEPMELAHERPDPPPREIIRQQRNEFQF | not soluble |
| SLSGRIVYNFNPGWRFHRGDIKGAEAVRFDDTSWQVVSVPHTVELMPAEASGCRNYQGVAWYRKHFVIPQDMKGKEVSLHFEGAMGKQVIYLNGKRVQEHLGGYLPFTVQLTEQGVQPGDSCLLAVMTDNSDDKNFPPGKRQYTLDFAYHGGIYRDVWMIGKSSVAITDALEADKVAGGGVFVHFDNISGKKAEVYVDTEVHNSGKQTRTVAVETVLADAGDVPVKRVSQQVKLQAGESKTVRQRFAVRNPKLWSPDSPYLYRIQSRVKAGHEVLDGGVTRVGIRKAEFKGKDGFWLNGKPFGQLVGANRHQDFAYVGNALPNSQQWRDAKRLRDAGCTIIRVAHYPQDPAFMDACDEMGLFVIVATPGWQYWNKNPEFAKLVHRNTREMIRRDRNHPSVLMWEPILNETPYPRDFALEALRITREEFPYPGRPVAAADVHSKGVAENYDVVYGWPGDDEKADRPEQCIFTREFGENVDDWYAHNNNNRASRSWGERPLLVQALSLSKSYDEMYRTTGQFVGGAQWHPFDHQRGYHPDPYFGGIYDAFRQPKYAYYAFRSQSAATLKHPVAECGPMVFIAHEMSPFSDADVVVFSNCDSVRLSVYDGTESRTLPVVHAQGHMPNAPVIFKDVWDFWEAREYSYKQKNWQKVNMVAEGIIDGKVVCTYKRMPSRRSTKLRMYVDTEGKQLVADGSDFIVVVAEVTDDSGNVRRLAKENIVFTVEGEGRIIGDASINANPRTVEFGSAPVLIRSTRKPGKIKVKAHVQFEGTNAPVATEIELESIPSELPFCYTEEG | not soluble |
| MGSDKIHHHHHHLCRKDASQPSMYDLHRLGWNSFQQLCLTIAREVLAQSVKSFLDSNDGGRDGAFCGTWTPTKNETMSGSFVIQCKFTSKPNALLAKEDIAAELPKIRRLTEKGLCDVYVLMTNAGVSGKQEERIAAELTSAGAKNVLILGGTWITDQIRENTRLRTLVPRVYGLGDLSQILDERAYEQARAVLDSLREDLAKVVMTSAYRNAVDALDRHGFVLLIGEPAAGKTTIASMLAMASADKWKSSVLRKR | not soluble |
| MAKVLVLNASYEPLNITHWQRAVVLLLKDKAEALENNGKLIYANFPLPSVIRLRQYIKVPYKEIPLTRRNVLERDRHTCQYCNYKGEQLTLDHVIPRSRGGGDSWENLVTACVRCNIKKGNRTPREAQMSLNYTPRRPYSSLLFEIIKHTRNDRNHEWRKYVIGILEHHHHHH | not soluble |
| MAKKTSSKGKLPPGPLPLPGLGNLLHVDFQNTPYCFDQLRRRFGDVFSLQLAWTPVVVLNGLAAVREALVTHGEDTADRPPVPITQILGFGPRSQGVFLARYGPAWREQRRFSVSTLRNLGLGKKSLEQWVTEEAACLCAAFANHSGRPFRPNGLLDKAVSNVIASLTCGRRFEYDDPRFLRLLDLAQEGLKEESGFLREVLNAVPVDRHIPALAGKVLRFQKAFLTQLDELLTEHRMTWDPAQPPRDLTEAFLAEMEKAKGNPESSFNDENLRIVVADLFSAGMVTTSTTLAWGLLLMILHPDVQRRVQQEIDDVIGQVRRPEMGDQAHMPYTTAVIHEVQRFGDIVPLGMTHMTSRDIEVQGFRIPKGTTLITNLSSVLKDEAVWEKPFRFHPEHFLDAQGHFVKPEAFLPFSAGRRACLGEPLARMELFLFFTSLLQHFSFSVPTGQPRPSHHGVFAFLVSPSPYELCAVPRHHHH | soluble |
| MNYDAKQPPANLADSIQQKETVQALYDLLDKNMADFDASLAGMDKAETADLKEVSDTREIYDFIRYHYGEFGQREAELLLRMENPLNFIVENWPCHNLETLAMNYLADKTIKEPNKKEMPQSGHDTKDAEKPSILKQIKTNQGQIKANRQETRQQSITAERPRDGEAR | not soluble |
| MASRLNEDPEGSRITYVKGDLFACPKTDSLAHCISEDCRMGAGIAVLFKKRFGGVQELLSQQKKSGEVAVLKRDGRYIYYLITKKRASHKPTYENLQKSLEAMKSHCLKNGVTDLSMPRIGCGLDRLQWENVSAILEEVFESTDIKITVYTL | not soluble |
| MMDAMTDPITFAATAAGRDAAHPLRDISFGEIGIATERKPDGTIYVRSTTTLTDYPVRITDRLHHFAETAPDRVFMAERNGEGGWRRISYAEMLRAAQTIASALIARGLSAERPVMILSGNSIDHAMVMFGALYAGVAMCPVSPPYSLVSKDYGKLRHIVGLLTPGLIFADDITAFAPAILATVPEDVELAATRGEVKGRKVTSLAELLATPEHPELAAKHEAIGHDTIAKFLLTSGSTGNPKAVINTQRMICANQVMIREAMAFLKDEPPVIVDWLPWNHTFGGNHNIGLTLFNGGSMYIDDGKPTPAGIASTIRNLREIAPTVYFNVPKGYESLLPVLREDQQLRKLFFSRLHAMFFSGASLAAHVWNGLDEVAVAETGARVPMLTGLGATETAPFFMSVTPQTSRSGHVGLPVPGNEAKLVPNNGKLEVRAKGPNITPGYWRAPELTDKAFDEEGFYKLNDALKPVDANDLSRGFDFDGRISEDFKLASGTWVSVGPLRAKFIAACASLVRDVVIAGLDRDYVTALAILDPDGCKLINATLPLEDLAGMAADHLIREAFRERFATLLTQATGSSNRVTRAVLLGEPLSIDKGEITDKGSVNQRAVLEYRASLIADLYADPPPAHVIALELEHHHHHH | soluble |

Source: the DeepSol protein solubility set
